Measured values from publication PMC5367257 (RNA Biology, 2017).

Experiments:
PABP 2-3 mt = PABP 2-3 mt (human, UniProt P11940 1-175+=[…]+190-636, internal_change); assay: EMSA
WT PABP = WT PABP (human, UniProt P11940 1-636); assay: EMSA
[1] = target: His-PABP-Flag (wild-type full-length human poly(A)-binding protein) (human, UniProt P11940 1-636); assay: pull-down

Binder | Kd (PABP 2-3 mt) [nM] | Kd (WT PABP) [nM] | fold increase of binding with eIF4E against without eIF4E [1] [fold]
AAAAAAAAAAAAAAAAAAAAAAAAA (ssRNA) [poly(A)25 RNA] | ~6.9 | ~5.9 | 
His-eIF4G-N (truncated human eIF4GI, amino acids 42–653, with the PABP- and eIF4E-binding sites) (domain or fragment) NTPSQPRQHFYPSRAQPPSSAASRVQSAAPARPGPAAHVYPAGSQVMMIPSQISYPASQGAYYIPGQGRSTYVVPTQQYPVQPGAPGFYPGASPTEFGTYAGAYYPAQGVQQFPTGVAPTPVLMNQPPQIAPKRERKTIRIRDPNQGGKDITEEIMSGARTASTPTPPQTGGGLEPQANGETPQVAVIVRPDDRSQGAIIADRPGLPGPEHSPSESQPSSPSPTPSPSPVLEPGSEPNLAVLSIPGDTMTTIQMSVEESTPISRETGEPYRLSPEPTPLAEPILEVEVTLSKPVPESEFSSSPLQAPTPLASHTVEIHEPNGMVPSEDLEPEVESSPELAPPPACPSESPVPIAPTAQPEELLNGAPSPPAVDLSPVSEPEEQAKEVTASMAPPTIPSATPATAPSATSPAQEEEMEEEEEEEEGEAGEAGEAESEKGGEELLPPESTPIPANLSQNLEAAAATQVAVSVPKRRRKIKELNKKEAVGDLLDAFKEANPAVPEVENQPPAGSNPGPESEGSGVPPRPEEADETWDSKEDKIHNAENIQPGEQKYEYKSDQWKPLNLEEKKRYDREFLLGFQFIFASMQKPEGLPHISDVVLDKANKTPLRPLD |  |  | ~3
